{
  "source": "patent US20050277588A1",
  "about": "(AFFYMAX, published 2005)",
  "binders": {"B1": {"name": "Example 53 peptide LLDICELKLQECARRCN (AF15846), oxidation state as tested not stated (peptide)", "peptide": "H-LLDICELKLQECARRCN-OH", "modifications": "also: oxidation state as tested not given here, active only after oxidation, as a dimer", "notes": "also called Ex. No. 53; Ex. 78 peptide"}, "B2": {"name": "Example 50 dimer of DLWYLESKLEECARRANG (peptide)", "peptide": "H-DLWYLESKLEECARRANG-NH2", "modifications": "also: disulfide at 12, other end not in the chain", "notes": "T0034 draws this dimer as [H]-...-[NH2]; also called Ex. No. 50"}, "B3": {"name": "Example 64 lysine-linked dimer MLAERKAEERRWFNTHGRE / MLAERKAEERRWFNTHGREK (peptide)", "peptide 1": "MLAERKAEERRWFNTHGRE", "peptide 2": "MLAERKAEERRWFNTHGREK-NH2", "modifications": "also: chain 1 C-terminus joined to the C-terminal Lys of chain 2 (branch link drawn)", "notes": "also called Ex. No. 64"}},
  "note": "Where no end group is shown, it is not given here. The star is where a group is joined. Biotin = O=C1N[C@H]2[C@H](CS[C@H]2CCCCC(=O)*)N1",
  "data": [
    {"target": "T1, granulocyte-colony stimulating factor receptor (G-CSFR), purified / soluble receptor used in the binding … (UniProt Q99062 25-627, limits assumed)", "T1 construct": "also called G-CSF receptor; soluble G-CSFR harvest", "T1 sequence (looked up)": "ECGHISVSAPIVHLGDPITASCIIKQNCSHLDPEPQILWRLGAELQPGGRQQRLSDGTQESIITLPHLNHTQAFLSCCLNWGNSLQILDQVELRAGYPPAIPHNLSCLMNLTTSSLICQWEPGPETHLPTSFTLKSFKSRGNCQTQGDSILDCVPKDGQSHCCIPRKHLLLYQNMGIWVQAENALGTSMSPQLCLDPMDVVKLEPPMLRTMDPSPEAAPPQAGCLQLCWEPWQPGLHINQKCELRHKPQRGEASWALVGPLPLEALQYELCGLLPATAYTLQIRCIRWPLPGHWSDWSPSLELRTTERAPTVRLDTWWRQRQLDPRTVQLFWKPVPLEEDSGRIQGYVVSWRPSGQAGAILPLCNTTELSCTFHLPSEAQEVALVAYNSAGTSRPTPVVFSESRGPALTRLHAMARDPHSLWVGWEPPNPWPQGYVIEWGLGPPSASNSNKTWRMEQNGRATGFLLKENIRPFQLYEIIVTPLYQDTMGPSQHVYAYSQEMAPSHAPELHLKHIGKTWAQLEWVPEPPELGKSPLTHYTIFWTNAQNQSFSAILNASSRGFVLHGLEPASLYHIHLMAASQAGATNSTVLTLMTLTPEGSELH", "assay": "specific binding to G-CSFR (total minus non-specific binding with excess unlabeled ligand)", "values": [
      {"binder": "CHANPVWGEC (also called Ex. No. 9)", "note": "[Example 9 peptide CHANPVWGEC]", "binding result": "no binding"},
      {"binder": "CTWTDLESVY (also called Ex. No. 10)", "note": "[Example 10 peptide CTWTDLESVY]", "binding result": "no binding"},
      {"binder": "CQRAGYMLAC (also called Ex. No. 8)", "note": "[Example 8 peptide CQRAGYMLAC]", "binding result": "no binding"},
      {"binder": "CETLCGACFC (also called Ex. No. 15)", "note": "[Example 15 peptide CETLCGACFC]", "binding result": "no binding"},
      {"binder": "CFWSDWGQTC (also called Ex. No. 11)", "note": "[Example 11 peptide CFWSDWGQTC]", "binding result": "no binding"}
    ]},
    {"target": "T1, granulocyte-colony stimulating factor …", "assay": "SPA competition with 125I-G-CSF on G-CSFR-coated beads; grade defined in paragraph 137", "description": "(§1) Streptavidin-coated scintillation proximity assay (SPA) beads (Amersham) were mixed with biotinylated anti-receptor immobilizing antibody (Ab179) followed by incubation with soluble G-CSFR harvest. Receptor-coated SPA beads were washed twice in PBS/0.1% BSA and distributed to wells of a white polystyrene 96-well microtiter plate (Packard). Serial dilutions of peptide or peptide mimetic were mixed with a constant amount of ¹²⁵I labeled G-CSF (10⁵ cpm; 1290 Ci/mmol) in PBS/0.1% BSA, added to wells containing receptor-coated SPA beads, and incubated overnight at 4° C. The binding of radiolabeled G-CSF to the receptor-coated SPA bead brings the isotope in close proximity to the scintillant, which allows the emitted radiation to stimulate the scintillant to emit light. […] The amount of ¹²⁵I labeled G-CSF that was bound at equilibrium was measured by counting the plate in a TopCount (Wallac) microtiter plate luminometer. The assay is conducted over a range of peptide concentrations and the results are graphed such that the y-axis represents the amount of bound ¹²⁵I labeled G-CSF and the x-axis represents the concentration of peptide or peptide mimetic. One can determine the concentration at which the peptide or peptide mimetic will reduce by 50% (IC₅₀) the amount of ¹²⁵I labeled G-CSF bound to immobilized G-CSFR. The dissociation constant (Kd) for the peptide should be similar to the measured IC₅₀ using the assay conditions described above.", "units": {"IC50": "µM"}, "values": [
      {"binder": "CGCHVSPVQIKALC (also called Ex. No. 71)", "note": "[Example 71 peptide CGCHVSPVQIKALC]", "IC50": "≤ 200"},
      {"binder": "CSTGGGLTAERDAEKRRWLLTHGGE (also: homodimer linked through the N-terminal Cys residues, also called Ex. No. 67)", "note": "[Example 67 dimer of CSTGGGLTAERDAEKRRWLLTHGGE]", "IC50": "≤ 200"},
      {"binder": "GGGLLDICELKLQECARRCN (also called Ex. No. 54)", "note": "[Example 54 peptide GGGLLDICELKLQECARRCN]", "IC50": "≤ 0.5"},
      {"binder": "GRTGGGLLDICELKLQECARRCN (also called Ex. No. 55)", "note": "[Example 55 peptide GRTGGGLLDICELKLQECARRCN]", "IC50": "≤ 0.5"},
      {"binder": "H-STAERLWFCG-NH2 (also: homodimer via interchain disulfide between the Cys residues, also called Ex. No. 37; Ex. 76)", "note": "[Example 37 dimer of NH2-STAERLWFCG-CONH2]", "IC50": "≤ 200"},
      {"binder": "H-EQSNSGWVWVGGGGC-NH2 (also called Ex. No. 45)", "note": "[Example 45 peptide NH2-EQSNSGWVWVGGGGC-CONH2 (monomer)]", "IC50": "≤ 200"},
      {"binder": "B1", "IC50": "≤ 0.5"},
      {"binder": "Biotin-LLDICELKLQECARRAN (cysteine pairing not given here, also called Ex. No. 59)", "note": "[Example 59 peptide Biotin-LLDICELKLQECARRAN]", "IC50": "≤ 200"},
      {"binder": "H-LLDIAELKLQECARRCN-OH (not fully specified (bridges); cysteine pairing not given here, also called Ex. No. 61)", "note": "[Example 61 peptide LLDIAELKLQECARRCN]", "IC50": "≤ 200"},
      {"binder": "H-LLDICELKLQEAARRCN-OH (not fully specified (bridges); cysteine pairing not given here, also called Ex. No. 58)", "note": "[Example 58 peptide LLDICELKLQEAARRCN]", "IC50": "≤ 200"},
      {"binder": "LLDICELKLQECARRAN (not fully specified (bridges); cysteine pairing not given here, also called Ex. No. 57)", "note": "[Example 57 peptide LLDICELKLQECARRAN]", "IC50": "≤ 200"},
      {"binder": "YLELCQLRLEECARQFN (also called Ex. No. 70)", "note": "[Example 70 peptide YLELCQLRLEECARQFN]", "IC50": "≤ 200"},
      {"binder": "H-EQSNSGWVWV-NH2 (also called Ex. No. 35; Ex. 74)", "note": "[Example 35 peptide NH2-EQSNSGWVWV-CONH2]", "IC50": "≤ 200"},
      {"binder": "Biotin-KGGGMLAERKAEERRWFNTHGRE (also called Ex. No. 63)", "note": "[Example 63 peptide Biotin-KGGGMLAERKAEERRWFNTHGRE]", "IC50": "≤ 200"},
      {"binder": "Biotin-KLLDIAELKLQECARRCN (cysteine pairing not given here, also called Ex. No. 62)", "note": "[Example 62 peptide Biotin-KLLDIAELKLQECARRCN]", "IC50": "≤ 200"},
      {"binder": "LGIEGRTGGGLLDICELKLQECARRCN (also called Ex. No. 56)", "note": "[Example 56 peptide LGIEGRTGGGLLDICELKLQECARRCN]", "IC50": "≤ 0.5"},
      {"binder": "H-EQSNSGWVWVGGGGC-NH2 (also: homodimer linked through the C-terminal Cys residues, also called Ex. No. 46)", "note": "[Example 46 dimer of NH2-EQSNSGWVWVGGGGC-CONH2]", "IC50": "≤ 200"},
      {"binder": "Biotin-KLLDICELKLQEAARRCN (cysteine pairing not given here, also called Ex. No. 60)", "note": "[Example 60 peptide Biotin-KLLDICELKLQEAARRCN]", "IC50": "≤ 200"},
      {"binder": "H-DLWYLESKLEECARRCNG-NH2 (not fully specified (bridges); cysteine pairing not given here, also called Ex. No. 51)", "note": "[Example 51 peptide DLWYLESKLEECARRCNG]", "IC50": "≤ 200"},
      {"binder": "B2", "IC50": "≤ 200"},
      {"binder": "H-DLWYLESKLEEAARRCNG-NH2 (also: homodimer via interchain disulfide between the Cys residues, also called Ex. No. 52)", "note": "[Example 52 dimer of DLWYLESKLEEAARRCNG]", "IC50": "≤ 200"}
    ]},
    {"target": "T1, granulocyte-colony stimulating factor …", "assay": "SPA competition with 125I-G-CSF on G-CSFR-coated beads; hybrid grade, at or near the cutoff", "description": "as §1", "units": {"IC50": "µM"}, "values": [
      {"binder": "B3", "IC50": "~200"},
      {"binder": "CESRLVECSRM (also called Ex. No. 47)", "note": "[Example 47 peptide CESRLVECSRM]", "IC50": "~200"},
      {"binder": "ALLMCESKLAECARAR (also called Ex. No. 49)", "note": "[Example 49 peptide ALLMCESKLAECARAR]", "IC50": "~200"},
      {"binder": "LAHCLLRLEECAAG (also called Ex. No. 48)", "note": "[Example 48 peptide LAHCLLRLEECAAG]", "IC50": "~200"}
    ]}
  ]
}
